For four molecules, Resistance evaluation results are on record in patent US20230212587A1, “Mutant Hydroxyphenylpyruvate Dioxygenase Polypeptide, Encoding Gene Thereof and Use Therefor” (Beijing Dabeinong Biotechnology Co., Ltd., priority 2019, published 2023).

This test concerns Arabidopsis thaliana T1 plants. The test is described as follows: Topramezone tolerance of transgenic Arabidopsis thaliana T1 plants (pesticide damage grade by bleached leaf area, score, resistance evaluation). Format: in vivo. The note with it: HPPD F372V mutants, Table 7. An outline of the steps:
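Herbicide tolerance was judged per plant on a bleaching scale (grade 0 no bleaching to grade 3 fully bleached) 7 DAT. Topramezone doses were 0, 25, 50 and 100 g ai/ha on 18-day-old T1 and wild-type plants.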

Numbering of substitutions follows the chain as printed. In names and notes the source's numbering stands.

B1: N3HPPDm-F372V: Burkholderia sp. N3 HPPD mutant F372V, SEQ ID NO: 393 (protein)
chain: MQIPNWENPVGTDGFEFIEYTAPDPKALGQLFERMGFTAIARHRHKDVTVYRQGDINFIINAEPHSFAQRFARLHGPSICAIAFRVQDAAKAYQHALELGAWGFDNKTGPMELNIPAIKGIGDSLIYFVDRWRGKNGAQPGAIGDISIYDVDFEPIAGANPNPAGHGLTYIDHLTHNVHRGRMQEWAEFYERLFNFREVRYFDIEGKVTGVKSKAMTSPCGKIRIPINEEGSDTAGQIQEYLDAYHGEGIQHIALGTNDIYGAVDGLRGKEVKLLDTIDTYYELVDRRVPDHGESLDELKKRKILIDGARDDLLLQIVTENQIGPIFFEIIQRKGNQGFGEGNFKALFESIELDQIRRGVVQDKA
modifications: N3HPPDm-F372V Amino Acid Sequence
Regarding B1, the Resistance evaluation entry (topramezone 25 g ai/ha (1x)) is given as “Highly resistant” and the Resistance evaluation entry (topramezone 100 g ai/ha (4x)) is reported as “Highly resistant”.

B2: N4HPPDm-F372V: Burkholderia sp. N4 HPPD mutant F372V, SEQ ID NO: 395 (protein)
chain: B1 chain with H65D, N160T, N258S, N343T
modifications: N4HPPDm-F372V Amino Acid Sequence
For B2, the Resistance evaluation result by setting is: (topramezone 25 g ai/ha (1x)) “Highly resistant”; (topramezone 100 g ai/ha (4x)) “Highly resistant”.

B3: N5HPPDm-F372V: Sphingobium sp. N5 HPPD mutant F372V, SEQ ID NO: 397 (protein)
chain: MAADSENPLGLHGFAFAEFTSPDPAAMARQFEQLGFVPAARRKDRGLTLYRQGRIAFILNAGEGEQASAFRAAHGPSANGMAFNVADAKAAHRHAIQSGATDADTAQSALPGTYAIEGIGDSLLYLVDSDPFADWDEVPGWREASAERGVGLDLLDHLTHNVRRGQMRVWSEFYATLFGFEEQKFFDIKGQATGLFSQAMIAPDHEIRIPLNESQDDNSQIEEFIREYNGEGIQHLALTTPDIYSTVEKLRANGVRLQDTIDTYYDLVDERVPGHGEDLARLRKNRILIDGDVHDEGLLLQIVTETMFGPIFFEIIQRKGNEGFGNGNFQVLFESIELDQIRRGVVTVDA
modifications: N5HPPDm-F372V Amino Acid Sequence
As to B3, the Resistance evaluation result is, setting by setting: (topramezone 25 g ai/ha (1x)) “Highly resistant”; (topramezone 100 g ai/ha (4x)) “Highly resistant”.

B4: GsHPPDm-F372V: Gossypium hirsutum HPPD mutant F372V, SEQ ID NO: 351 (protein)
chain: MVQTNQSGSGNDFKLVGFSNFVRSNPKSDRFTVKRFHHIEFWCTDATNVARRFSWGLGMQFVAKSDLSTGNLTHASYLLRSRDLNFLFTAPYSPSIAVAQNLSPQSTASIPSFDHSLCRSFAATHGLGVRAIAIEVDDAETAFTTSVTHGALPFCPPTPLGDVATIAEVKLYGDVVLRYVSYTTTINSDHDFLPGFEKIEDTLSYPLDYGLRRLDHAVGNVPELGPAVSYVKSFTGFHEFAEFTAEDVGTSESGLNSVVLANNEEMVLLPMNEPVFGTKRKSQIQTYLEHNEGAGVQHLALVSEDIFKTLREMRKRSFVGGFEFMPSPPPTYYKKLKQRAGDILSDEQIKECEELGILVDRDDQGTLLQIVTKPVGDRPTIFIEIIQRIGCMVKDEEGKQYQKGGCGGFGKGNFSELFKSIEEYEKSLEAKQSQNP
modifications: GsHPPDm-F372V Amino Acid Sequence
Consider B4, for which the Resistance evaluation result reads like this: (topramezone 25 g ai/ha (1x)) “Moderately resistant”; (topramezone 100 g ai/ha (4x)) “Non-resistant”.
